# B1: 人源化抗体H1512-8 (antibody, human IgG4 S228P, kappa, V domains shown)
# VH: EVQLVESGGGLVQPGGSLRLSCAASGFTVSNYDMSWVRQAPGKGLEWVSMIETDGSIFHASWVNGRFTISRDNSKNTLYLQMNSLRAEDTAVYYCARGSNDYDAYGYPYFTLWGQGTLVTVSS
# VL: ELVLTQSSSASASLGSSVKLTCTLSSAHETYTIDWYQQQPGKAPRYLMELKSDGSYNKGAGVPDRFSGSSSGADRYLTISNLQLEDEATYHCGADFSDGYVFGGGTKVEIKR
# notes: Humanized antibody
# B2: 人源化抗体H1512-12 (antibody, human IgG4 S228P, kappa, V domains shown)
# VH: EVQLVESGGGLVQPGGSLRLSCAASGFTVSNYDMSWVRQAPGKGLEWIGMIETDGSIFHASWVNGRFTISKDNSKNTVYLQMNSLRAEDTAVYFCVRGSNDYDAYGYPYFTLWGQGTLVTVSS
# VL: QLVLTQSSSASASLGSSVKLTCTLSSAHETYTIDWYQQQPGKAPRYLMELKSDGSYNKGAGVPDRFSGSSSGADRYLTISNLQLEDEATYHCGADFSDGYVFGGGTKVEIKR
# notes: Humanized antibody; also called 抗凝血酶抗体H1512-12
# B3: 人源化抗体H1512-1 (antibody, human IgG4 S228P, kappa, V domains shown)
# VH: EVQLVESGGGLVQPGGSLRLSCAASGFTVSNYDMSWVRQAPGKGLEWVSMIETDGSIFHASWVNGRFTISRDNSKNTLYLQMNSLRAEDTAVYYCARGSNDYDAYGYPYFTLWGQGTLVTVSS
# VL: QPVLTQSSSASASLGSSVKLTCTLSSAHETYTIDWHQQQPGKAPRYLMKLKSDGSYNKGAGVPDRFSGSSSGADRYLTISNLQLEDEADYYCGADFSDGYVFGGGTKVEIKR
# notes: Humanized antibody
# What was measured:
# 带His标签的人凝血酶 [1] = target: T1, 带His标签的人凝血酶 (human, UniProt P00734 328-622); experiment: ELISA, biotinylated His-tagged human thrombin on streptavidin plate
# 带His标签的人凝血酶 [2] = target: T1, 带His标签的人凝血酶; experiment: BIAcore SPR, antibody captured by anti-human capture antibody on CM5 chip, His-tagged thrombin in flow
# 带His标签的人凝血酶原 = target: T2, 带His标签的人凝血酶原 (human, UniProt P00734 44-622); experiment: BIAcore SPR, antibody captured by anti-human capture antibody on CM5 chip, His-tagged prothrombin in flow
# T2 construct: Zymogen precursor of thrombin, expressed in HEK293E; also called h-prothrombin-his; 人Pro凝血酶
Binder,EC50 (带His标签的人凝血酶 [1]),Kd (带His标签的人凝血酶 [2]),Kd (带His标签的人凝血酶原)
B1,19.3 nM,,
B2,0.16 nM,2.79 nM,26.4 nM
B3,43.4 nM,,

# Source: CN107043423A (JIANGSU HENGRUI MEDICINE CO; SHANGHAI HENGRUI …, dated 2017)
